Assay results from paper PMC7784082 (Cell metabolism, 2019).

Molecular target: TAZ, mouse, expressed from plasmid (HA-TAZ WT) (mouse, UniProt Q9EPK5 1-395)
Test: co-IP

TAZ, mouse, expressed from plasmid (HA-TAZ WT), sequence (Q9EPK5 whole entry): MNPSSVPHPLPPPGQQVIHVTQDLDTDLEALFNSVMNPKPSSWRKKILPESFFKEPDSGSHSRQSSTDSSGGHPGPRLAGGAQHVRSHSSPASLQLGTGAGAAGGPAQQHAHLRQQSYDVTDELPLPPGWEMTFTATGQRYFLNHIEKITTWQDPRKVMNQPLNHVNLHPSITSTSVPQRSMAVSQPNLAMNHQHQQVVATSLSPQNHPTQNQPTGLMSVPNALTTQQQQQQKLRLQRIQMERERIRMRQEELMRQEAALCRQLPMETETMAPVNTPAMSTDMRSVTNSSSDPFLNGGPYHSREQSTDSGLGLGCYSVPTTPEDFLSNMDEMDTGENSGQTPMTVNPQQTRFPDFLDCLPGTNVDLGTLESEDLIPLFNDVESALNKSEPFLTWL

B1: PPARγ S112D (phospho-mimic mutant of mouse PPARgamma 2) (natural protein, UniProt P37238-1 1-505, looked up)
chain: MGETLGDSPVDPEHGAFADALPMSTSQEITMVDTEMPFWPTNFGISSVDLSVMEDHSHSFDIKPFTTVDFSSISAPHYEDIPFTRADPMVADYKYDLKLQEYQSAIKVEPADPPYYSEKTQLYNRPHEEPSNSLMAIECRVCGDKASGFHYGVHACEGCKGFFRRTIRLKLIYDRCDLNCRIHKKSRNKCQYCRFQKCLAVGMSHNAIRFGRMPQAEKEKLLAEISSDIDQLNPESADLRALAKHLYDSYIKSFPLTKAKARAILTGKTTDKSPFVIYDMNSLMMGEDKIKFKHITPLQEQSKEVAIRIFQGCQFRSVEAVQEITEYAKNIPGFINLDLNDQVTLLKYGVHEIIYTMLASLMNKDGVLISEGQGFMTREFLKNLRKPFGDFMEPKFEFAVKFNALELDDSDLAIFIAVIILSGDRPGLLNVKPIEDIQDNLLQALELQLKLNHPESSQLFAKVLQKMTDLRQIVTEHVQLLHVIKKTETDMSLHPLLQEIYKDLY
  fold change of association against WT PPARγ: ~2 fold
